# Test results reported in PMC12016152.
# B1: ASIC4: ASIC4N243A (protein)
# parent chain: MPIEIVCKIKFAEEDAKPKEKEAGDEQSLLGAAQGPAAPRDLATFASTSTLHGLGRACGPGPHGLRRTLWALALLTSLAAFLYQAASLARGYLTRPHLVAMDPAAPAPVAGFPAVTLCNINRFRHSALSDADIFHLANLTGLPPKDRDGHRAAGLRYPEPDMVDILNRTGHQLADMLKSCNFSGHHCSASNFSVVYTRYGKCYTFNADPQSSLPSRAGGMGSGLEIMLDIQQEEYLPIWRETNETSFEAGIRVQIHSQEEPPYIHQLGFGVSPGFQTFVSCQEQRLTYLPQPWGNCRAESELREPELQGYSAYSVSACRLRCEKEAVLQRCHCRMVHMPGNETICPPNIYIECADHTLDSLGGGSEGPCFCPTPCNLTRYGKEISMVKIPNRGSARYLARKYNRNETYIRENFLVLDVFFEALTSEAMEQQAAYGLSALLGDLGGQMGLFIGASILTLLEILDYIYEVSWDRLKRVWRRPKTPLRTSTGGISTLGLQELKEQSPCPSRGRAEGGGASSLLPNHHHPHGPPGSLFEDFAC
# B2: ASIC4: ASIC4N191A (protein)
# parent chain: B1 parent chain
# B3: ASIC4: ASIC4N376A (protein)
# parent chain: B1 parent chain
# B4: ASIC4: ASIC4N191A, N243A, N341A, N376A (protein)
# parent chain: B1 parent chain
# B5: ASIC4: ASIC4N341A (protein)
# parent chain: B1 parent chain
# Experiment: amygdala cell surface fraction, western blot, Asic4-/- mice
# Details: glycan lost; control: AAV-DIO-ASIC4WT rescue
row,Protein,other: surface expression of ASIC1a in vivo
1,B1,no change
2,B2,increases

# Experiment: surface biotinylation, western blot, CHO (n = 2)
# Details: glycan lost; control: ASIC1a + ASIC4WT
row,Protein,other: surface expression of co-expressed ASIC1a
1,B3,no change
2,B1,no change
3,B4,increases
4,B5,increases
5,B2,increases

# Experiment: whole-cell patch clamp, pH 5.0 peak current density, CHO
# Details: glycan lost; control: ASIC1a + ASIC4WT
row,Protein,other: channel current of co-expressed ASIC1a
1,B3,no change
2,B1,no change
3,B4,increases
4,B5,increases
5,B2,increases
